Source: patent publication US20230242620A1
Numbering of substitutions follows the chain as printed. Names and notes keep the numbering of the source. Values belong to the binder of their own block, whether it stands above or below them.

Assays:
[1] = target: serum sample IHUS#B09032311A1; experiment: ECL drug displacement assay, variant as competitor against labelled SEQ ID NO:1
[2] = target: serum sample IHUS#B09032311A20 (pre-existing antibodies against ISV); experiment: as above
[3] = target: serum sample IHUS#B09032311A3 (pre-existing antibodies against ISV); experiment: as above
[4] = target: affinity purified antibody IHuP#002-001-ABL-08; experiment: ECL bridging/competition assay, 10 ug/ml ISV, 400 ng/ml antibody, labelled SEQ ID NO:1
[5] = target: analytical polyclonal antibody generated in Example 2; experiment: SPR Biacore T100, polyclonal immobilized, 500 nM ISV, RU at end of injection

B1: Example 1C: (A14P, R39Q, K83R, T91Y, Q108L)-QA (VHH)
VHH: EVQLVESGGGLVQPGGSLRLSCAASGRTFNNYAMGWFRQAPGKEREFVAAITRSGVRSGVSAIYGDSVKDRFTISRDNAKNTLYLQMNSLRPEDTAVYYCAASAIGSGALRRFEYDYSGQGTLVTVSS
- % reduction [1]: 3%
- ECLU confirmatory assay [1]: 60 ECLU
- % reduction [2]: 18%
- ECLU confirmatory assay [2]: 15100 ECLU
- % reduction [3]: 18%
- ECLU confirmatory assay [3]: 1810 ECLU
- % reduction [4]: 58.6%
- ECLU confirmatory assay [4]: 1210 ECLU

B2: Example 1C: (A14P, K83R, Q108L) (VHH)
VHH: B1 VHH with Q39R, Y99T
- % reduction [1]: 8%
- ECLU confirmatory assay [1]: 57 ECLU
- % reduction [2]: 97%
- ECLU confirmatory assay [2]: 628 ECLU
- % reduction [3]: 93%
- ECLU confirmatory assay [3]: 156 ECLU
- % reduction [4]: 89.1%
- ECLU confirmatory assay [4]: 319 ECLU

B3: Example 1C: (A14P) (VHH)
VHH: B1 VHH with Q39R, R91K, Y99T, L123Q
- % reduction [1]: 10%
- ECLU confirmatory assay [1]: 56 ECLU
- % reduction [2]: 96%
- ECLU confirmatory assay [2]: 668 ECLU
- % reduction [3]: 91%
- ECLU confirmatory assay [3]: 205 ECLU
- % reduction [4]: 90.8%
- ECLU confirmatory assay [4]: 268 ECLU

B4: Example 1c: (A14P, R39Q, K83R,T91Y, Q108L) (VHH)
VHH: B1 VHH
- % reduction [1]: 6%
- ECLU confirmatory assay [1]: 58 ECLU
- % reduction [2]: 97%
- ECLU confirmatory assay [2]: 570 ECLU
- % reduction [3]: 90%
- ECLU confirmatory assay [3]: 228 ECLU
- % reduction [4]: 91.4%
- ECLU confirmatory assay [4]: 251 ECLU

B5: Example 1C: wildtype (VHH)
VHH: B1 VHH with P14A, Q39R, R91K, Y99T, L123Q
- % reduction [1]: 4%
- ECLU confirmatory assay [1]: 60 ECLU
- % reduction [2]: 53%
- ECLU confirmatory assay [2]: 8680 ECLU
- % reduction [3]: 20%
- ECLU confirmatory assay [3]: 1780 ECLU
- % reduction [4]: 7.3%
- ECLU confirmatory assay [4]: 2710 ECLU

B6: Example 1C: (A14P, R39Q, K83R, T91Y, Q108L)-3A (VHH)
VHH: B1 VHH
- % reduction [1]: 0%
- ECLU confirmatory assay [1]: 62 ECLU
- % reduction [2]: 18%
- ECLU confirmatory assay [2]: 15200 ECLU
- % reduction [3]: 13%
- ECLU confirmatory assay [3]: 1930 ECLU
- % reduction [4]: -13.1%
- ECLU confirmatory assay [4]: 3300 ECLU

B7: Example 1C: (K83R) (VHH)
VHH: B1 VHH with P14A, Q39R, Y99T, L123Q
- % reduction [1]: 1%
- ECLU confirmatory assay [1]: 62 ECLU
- % reduction [2]: 63%
- ECLU confirmatory assay [2]: 6910 ECLU
- % reduction [3]: 37%
- ECLU confirmatory assay [3]: 1400 ECLU
- % reduction [4]: 15.7%
- ECLU confirmatory assay [4]: 2460 ECLU

B8: Example 1C: (Q108L) (VHH)
VHH: B1 VHH with P14A, Q39R, R91K, Y99T
- % reduction [1]: 5%
- ECLU confirmatory assay [1]: 59 ECLU
- % reduction [2]: 62%
- ECLU confirmatory assay [2]: 6990 ECLU
- % reduction [3]: 31%
- ECLU confirmatory assay [3]: 1530 ECLU
- % reduction [4]: 13.2%
- ECLU confirmatory assay [4]: 2530 ECLU

B10: Nb3.10 (VHH)
VHH: EVQLVESGGGLVQAGGSLRLSCAASRSIGRLDRMGWYRHRPGEPRELVATITGGSSINYGDSVKGRFTISIDNSKNTVYLQMNSLRPEDTAVYYCNFNKYVTSRDTWGQGTLVTVSS
- Binding (RU) [5]: 91 RU

B14: Nb3.1 (VHH)
VHH: B10 VHH with P41T, S62F, S74A, S84N, R86K, L112Q
- Binding (RU) [5]: 2 RU

Further lines, results first:

- Binding (RU) [5]: 51 RU
B9: Nb4.1 (VHH)
VHH: EVQLVESGGGLVQPGGSLRLSCAASGSVFKINVMAWYRQAPGKGRELVAGIISGGSTSYADSVKGRFTISRDNAKNTLYLQMNSLRPEDTAVYYCAFITTESDYDLGRRYWGQGTLVTVSS

- Binding (RU) [5]: 79 RU
B11: Nb3.14 (VHH)
VHH: B10 VHH with A14P, T114Q

- Binding (RU) [5]: 86 RU
B12: Nb3.12 (VHH)
VHH: B10 VHH with L112Q

- Binding (RU) [5]: 90 RU
B13: Nb3.13 (VHH)
VHH: B10 VHH with A14P, L112Q

- Binding (RU) [5]: 88 RU
B15: Nb3.11 (VHH)
VHH: B10 VHH with A14P, R86K

- Binding (RU) [5]: 22 RU
B16: Nb3.15 (VHH)
VHH: B10 VHH with L11S, A14P

- Binding (RU) [5]: 66 RU
B17: Nb6.5 (VHH)
VHH: EVQLLESGGGLVQPGGSLRLSCAASGLPFSTKSMGWFRQAPGKGREFVSRISPGGTSRYYGDFVKGRFTISRDNSKNTLYLQMNSLRAEDTAVYYCASGERSTYIGSNYYRTNEYDYWGQGTLVTVSS

- Binding (RU) [5]: 39 RU
B18: Nb6.2 (VHH)
VHH: EVQLVESGGGLVQPGGSLRLSCIASGLPFSTKSMGWFRQAPGKEREFVARISPGGTSRYYGDFVKGRFAISRDNAKNTTWLQMNSLKAEDTAVYYCASGERSTYIGSNYYRTNEYDYWGTGTQVTVSS
